# Data: patent publication US20120171118A1, “TREATMENT OF MENINGEAL AND NEURAL DISEASES” (THE GENERAL HOSPITAL CORPORATION, priority 2009, published 2012)
# B1: sulfamidase: human recombinant enzyme labeled with 124I (protein, UniProt P51688 21-502, looked up)
# N-sulphoglucosamine …: RPRNALLLLADDGGFESGAYNNSAIATPHLDALARRSLLFRNAFTSVSSCSPSRASLLTGLPQHQNGMYGLHQDVHHFNSFDKVRSLPLLLSQAGVRTGIIGKKHVGPETVYPFDFAYTEENGSVLQVGRNITRIKLLVRKFLQTQDDRPFFLYVAFHDPHRCGHSQPQYGTFCEKFGNGESGMGRIPDWTPQAYDPLDVLVPYFVPNTPAARADLAAQYTTVGRMDQGVGLVLQELRDAGVLNDTLVIFTSDNGIPFPSGRTNLYWPGTAEPLLVSSPEHPKRWGQVSEAYVSLLDLTPTILDWFSIPYPSYAIFGSKTIHLTGRSLLPALEAEPLWATVFGSQSHHEVTMSYPMRSVQHRHFRLVHNLNFKMPFPIDQDFYVSPTFQDLLNRTTAGQPTGWYKDLRHYYYRARWELYDRSRDPHETQNLATDPRFAQLLEMLRDQLAKWQWETHDPWVCAPDGVLEEKLSPQCQPLHNEL
# modifications: 124I label
# notes: human recombinant enzyme labeled with 124I
# B2: arylsulfatase A: human recombinant enzyme labeled with 124I (protein, UniProt P15289 19-507, looked up)
# Arylsulfatase A: RPPNIVLIFADDLGYGDLGCYGHPSSTTPNLDQLAAGGLRFTDFYVPVSLCTPSRAALLTGRLPVRMGMYPGVLVPSSRGGLPLEEVTVAEVLAARGYLTGMAGKWHLGVGPEGAFLPPHQGFHRFLGIPYSHDQGPCQNLTCFPPATPCDGGCDQGLVPIPLLANLSVEAQPPWLPGLEARYMAFAHDLMADAQRQDRPFFLYYASHHTHYPQFSGQSFAERSGRGPFGDSLMELDAAVGTLMTAIGDLGLLEETLVIFTADNGPETMRMSRGGCSGLLRCGKGTTYEGGVREPALAFWPGHIAPGVTHELASSLDLLPTLAALAGAPLPNVTLDGFDLSPLLLGTGKSPRQSLFFYPSYPDEVRGVFAVRTGKYKAHFFTQGSAHSDTTADPACHASSSLTAHEPPLLYDLSKDPGENYNLLGGVAGATPEVLQALKQLQLLKAQLDAAVTFGPSQVARGEDPALQICCHPGCTPRPACCHCPDPHA
# modifications: 124I label
# notes: as for B1
# B3: idursulfase: human recombinant enzyme labeled with 124I (protein, UniProt P22304 34-455; P22304 456-550, looked up)
# Iduronate 2-sulfatase 42 kDa …: TDALNVLLIIVDDLRPSLGCYGDKLVRSPNIDQLASHSLLFQNAFAQQAVCAPSRVSFLTGRRPDTTRLYDFNSYWRVHAGNFSTIPQYFKENGYVTMSVGKVFHPGISSNHTDDSPYSWSFPPYHPSSEKYENTKTCRGPDGELHANLLCPVDVLDVPEGTLPDKQSTEQAIQLLEKMKTSASPFFLAVGYHKPHIPFRYPKEFQKLYPLENITLAPDPEVPDGLPPVAYNPWMDIRQREDVQALNISVPYGPIPVDFQRKIRQSYFASVSYLDTQVGRLLSALDDLQLANSTIIAFTSDHGWALGEHGEWAKYSNFDVATHVPLIFYVPGRTASLPEAGEKLFPYLDPFDSASQLMEPGRQSMDLVELVSLFPTLAGLAGLQVPPRCPVPSFHVELCREGKNLLKHFRFRDLEEDPYLPG
# Iduronate 2-sulfatase 14 kDa …: NPRELIAYSQYPRPSDIPQWNSDKPSLKDIKIMGYSIRTIDYRYTVWVGFNPDEFLANFSDIHAGELYFVDSDPLQDHNMYNDSQGGDLFQLLMP
# modifications: 124I label
# notes: as for B1
# Columns and labels:
# [1] = systemically administered; cited from earlier work
# [2] = assay type: in vitro ADME; settings: rat, plasma
# Protocol: The mechanism of the second stage hydrolysis in vivo, which results in the active CPT release, may include spontaneous or enzymatic hydrolysis as well as, e.g., aminolysis. In vitro, the half-life of (N-succinamido)-glycyl linkage in the CPT prodrug (VI) in rat plasma was over 20 hours.
# [3] = assay type: physicochemical
# Text: Based on the experimental data on CPT release from PHF-CPT, the action of the conjugate after intrathecal administration will be localized in the target compartment (leptomeningeal tissues contacting with CSF). The kinetics of CPT release includes two phases: (1) non-enzymatic release of a highly hydrophobic prodrug camptothecin succinimidoglycinate (CPT-SI), and (2) release of active CPT from CPT-SI (Scheme 6). […] Thus, it is expected that CPT-SI will be deposited in the leptomeningeal space and will redistribute only locally along cell membranes and other hydrophobic compartments. […] A similar distribution pattern in the meningeal compartment is expected, with CPT-SI penetration from CSF into the cancer cell formations through several cell layers.
# [4] = neoplastic carcinoma patients; cited from earlier work
# [5] = humans, cited from earlier work
# [6] = PET imaging of 124I-labeled human recombinant enzymes after IV and IT administration; assay type: in vivo, rats
# Protocol: Imaging was performed using MicroPET P4. Spatial resolution (full width at half maximum, FWHM) was studied using a line ^124I source (Ø=0.19 mm) in water. A 51×127 mm cylindrical phantom was used to evaluate the count-rate performance and coincidence detection. Studies in rats and cynomolgus monkeys were carried out using five human recombinant enzymes. The proteins were labeled with ^124I, at up to 5 mCi/mg.
# Next, three human recombinant enzymes, idursulfase, arylsulfatase A, and sulfamidase were labeled with ^124I and administered at 1 and 10 mg/kg via two routes, IV and IT. Dynamic imaging data and multiple static images were acquired over 8 days, and processed to determine the principal PK parameters. FITC labeled sulfamidase was also utilized to investigate brain cryosections by photoimaging.
molecule,measurement,setting,value
CN(Cc1cnc2nc(N)nc(N)c2n1)c1ccc(C(=O)N[C@@H](CCC(=O)O)C(=O)O)cc1 [methotrexate],CSF level relative to the systemic level,[1],1.7%
camptothecin succinimidoglycinate [CPT-SI],half-life of (N-succinamido)-glycyl linkage,[2],over 20 hours
same,solubility in water,[3],practically insoluble in water
CC[C@@]1(O)C(=O)OCc2c1cc1n(c2=O)Cc2cc3c(CN(C)C)c(O)ccc3nc2-1 [topotecan],clinical outcome,[4],not promising
indium complex of diethylenetriaminepentaacetic acid [In-DTPA],time to reach brain ventricles,[5]; after intralumbar injection,ca. 5 hours
same,half-life in CSF,[5],13.5 ± 4.5 h
B1,initial label content in the brain region,"[6]; after IT administration, 124I label, PET",35 % of the injected dose/g
same,initial label content in the brain region,"[6]; after IV administration, 124I label, PET",0.05 % of the injected dose/g
B2,initial label content in the brain region,"[6]; rat, in vivo",70 % of the injected dose/g
same,initial label content in the brain region,"[6]; rat, in vivo, iv",0.15 % of the injected dose/g
B3,half-life of clearance from both the brain and spinal cord,"[6]; rat, in vivo",ca. 7 h
same,initial label content in the brain region,"[6]; rat, in vivo",45 % of the injected dose/g
same,initial label content in the brain region,"[6]; rat, in vivo, iv",0.20 % of the injected dose/g
